Laboratory results from patent US20240074473A1, “METHOD FOR INDUCING HYPERTROPHIC MUSCLE FIBERS FOR INDUSTRIAL MEAT PRODUCTION” (Yeda Research and Development Co. Ltd., priority 2021, published 2024).

How the values were obtained:
[1] = Maximum estimated dietary exposure to media ingredients per 100 g serving; conditions: assumption of complete transfer of media components to the finished product on a wt/wt basis
[2] = Risk categorization of cell culture media ingredients
Description: Category 1: These cell culture media components are food ingredients/additives that are GRAS or permitted by federal regulation without limitation on use. Exemplary compounds in this category include innocuous ingredients such as sugars, pH buffers, water soluble vitamins, and common antioxidants such as tocopherols.
Category 2: These cell culture media components are common dietary nutrients and are anticipated to have GRAS status for food use or be permitted by regulation for addition to food. Examples of such compounds include most of the inorganic salts and macronutrients that are present within the cell culture media. […] Majority of nutrients present within the poultry cell-based meat may be readily measured using common validated methods for food composition testing. […]
For example, situations where the compound is not detectable in finished product or is present at equivalent levels in comparator foods, compounds that are thermo-labile and will be digested during cooking, and/or compounds that are expected to be digested to innocuous compounds following ingestion. […] For Category 3 substances a final consideration in the safety assessment process may involve hazard characterization of the potential for a substance to produce toxic biological effects outside of the endpoints measured in a sub-chronic rat toxicity study. […]

B1: Bovine Transferrin: iron carrier of cell culture media (protein, UniProt Q29443 20-704, looked up)
Serotransferrin: DPERTVRWCTISTHEANKCASFRENVLRILESGPFVSCVKKTSHMDCIKAISNNEADAVTLDGGLVYEAGLKPNNLKPVVAEFHGTKDNPQTHYYAVAVVKKDTDFKLNELRGKKSCHTGLGRSAGWNIPMAKLYKELPDPQESIQRAAANFFSASCVPCADQSSFPKLCQLCAGKGTDKCACSNHEPYFGYSGAFKCLMEGAGDVAFVKHSTVFDNLPNPEDRKNYELLCGDNTRKSVDDYQECYLAMVPSHAVVARTVGGKEDVIWELLNHAQEHFGKDKPDNFQLFQSPHGKDLLFKDSADGFLKIPSKMDFELYLGYEYVTALQNLRESKPPDSSKDECMVKWCAIGHQERTKCDRWSGFSGGAIECETAENTEECIAKIMKGEADAMSLDGGYLYIAGKCGLVPVLAENYKTEGESCKNTPEKGYLAVAVVKTSDANINWNNLKDKKSCHTAVDRTAGWNIPMGLLYSKINNCKFDEFFSAGCAPGSPRNSSLCALCIGSEKGTGKECVPNSNERYYGYTGAFRCLVEKGDVAFVKDQTVIQNTDGNNNEAWAKNLKKENFEVLCKDGTRKPVTDAENCHLARGPNHAVVSRKDKATCVEKILNKQQDDFGKSVTDCTSNFCLFQSNSKDLLFRDDTKCLASIAKKTYDSYLGDDYVRAMTNLRQCSTSKLLEACTFHKP
Q: With B1 as the molecule, how does the “Maximum Estimated Exposure per 100 g serving” value [1] read?
A: Its value is 150 mg.

Q: And the “Risk Assessment Category” value [2]?
A: The value was 3.
